Measurements: US20210347842A1 (Eli Lilly, published 2021)

Legend:
human PD-1 [1] = target: T1, human PD-1 (human, UniProt Q15116 21-170); test: bio-layer interferometry (BLI)
cynomolgus monkey PD-1 = target: T2, cynomolgus monkey PD-1 (cynomolgus monkey, UniProt B0LAJ3 25-170); test: not stated in the sentence (BLI named in the next sentence), 25 C
T2 construct: construct not described; also called cynomologous monkey PD-1

human PD-1 [2] = target: T1, human PD-1; test: not stated in the sentence (BLI named in the next sentence), 25 C; 25 C; stated bound in the text

T1 sequence (Q15116 21-170 limits assumed, form in doubt): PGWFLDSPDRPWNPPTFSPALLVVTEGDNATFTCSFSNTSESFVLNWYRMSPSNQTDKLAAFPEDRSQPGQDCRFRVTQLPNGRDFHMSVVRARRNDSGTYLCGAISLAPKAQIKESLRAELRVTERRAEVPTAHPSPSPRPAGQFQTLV
T2 sequence (B0LAJ3 entry or part of it limits assumed): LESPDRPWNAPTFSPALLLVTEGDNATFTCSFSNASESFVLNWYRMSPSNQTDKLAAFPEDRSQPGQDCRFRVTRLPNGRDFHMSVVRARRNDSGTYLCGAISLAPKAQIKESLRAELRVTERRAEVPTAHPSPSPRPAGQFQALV

B1: AM0001 (antibody, human IgG4 S228P, lambda, V domains shown)
VH: EVQLLESGGGLVQPGGSLRLSCPASGFTFSSYAMSWVRQAPGKGLGWVSDISGGGGTTYYADSVKGRFTISRDNSKNTLYLQMNSLRGEDTAVYYCAKSGTVVTDFDYWGQGTLVTVSS
VL: SYVLTQPPSVSVAPGQTARVTCGGNSIGSYSVHWYQQKPGQAPVLVVYDDSDRPSGIPERFSGSNSGNTAALTISRVEAGDEADYYCQVWDTSSYWVFGGGTKLTVLG
notes: Monoclonal antibody with lambda 2 light chain and hinge-stabilized IgG4 (S228P) heavy chain; also called PD1-antagonist antibody
Human PD-1 [1]
  Kd: < 0.001 nM
Cynomolgus monkey PD-1
  Kd: ≤ 0.01 nM
Human PD-1 [2]
  Kd: ≤ 0.01 nM
